In the Human Domainome abundance scans (Beltran et al. 2025):
± gives the uncertainty stated by the source.

B1: Tumor protein p73, residues 487 to 549; numbered along this chain, O15350 (parent)
chain: YHADPSLVSFLTGLGCPNCIEYFTSQGLQSIYHLQNLTIEDLGALKIPEQYRMTIWRGLQDLK

Variants of: B1
Test: abundance fitness (aPCA) (normalised: wild type 0, dead -1); higher = more abundant; growth selection in yeast, the domain comes from the species named
Settings: Homo sapiens

In order of falling abundance fitness:
1. YHADPSLVSFLTGLGCPNCIEYFTSQGLQSIYHLQNLTIEDLGALKIPEQYRMTIWFGLQDLK [R57F]  0.311 ± 0.39
2. YHADPSLVSFLTGLGCPNCIEYFTSQGLQSIYHLQNLTIEDLGALKIPEQYRMTIIRGLQDLK [W56I]  0.086 ± 0.058
3. YHADPSLVSFLTGLGCPNCIEYFTSQGLQSIYHLQNLTIEDLGALKIPEQYRMTITRGLQDLK [W56T]  0.082 ± 0.051
4. YHADPSLVSFLTGLGCPNCIEYFTSQGLQSIYHLQNLTIEDLGALKIPEQYRMTIFRGLQDLK [W56F]  0.075 ± 0.07
5. YHADPSLVSFLTGLGCPNCIEYFTSQGLQSIYHLQNLTIEDLGALKIPEQYRMTIYRGLQDLK [W56Y]  0.037 ± 0.066
6. YHADPSLVSFLTGLGCPNCIEYFTSQGLQSIYHLQNLTIEDLGALKIPEQYRMTIQRGLQDLK [W56Q]  0.035 ± 0.046
7. YHADPSLVSFLTGLGCPNCIEYFTSQGLQSIYHLQNLTIEDLGALKIPEQYRMTIWTGLQDLK [R57T]  0.024 ± 0.054
8. YHADPSLVSFLTGLGCPNCIEYFTSQGLQSIYHLQNLTIEDLGALKIPEQYRMTILRGLQDLK [W56L]  0.017 ± 0.04
9. YHADPSLVSFLTGLGCPNCIEYFTSQGLQSIYHLQNLTIEDLGALKIPEQYRMTIARGLQDLK [W56A]  0.014 ± 0.037
10. YHADPSLVSFLTGLGCPNCIEYFTSQGLQSIYHLQNLTIEDLGALKIPEQYRMTIWHGLQDLK [R57H]  0.012 ± 0.12
11. YHADPSLVSFLTGLGCPNCIEYFTSQGLQSIYHLQNLTIEDLGALKIPEQYRMTISRGLQDLK [W56S]  0.011 ± 0.042
12. YHADPSLVSFLTGLGCPNCIEYFTSQGLQSIYHLQNLTIEDLGALKIPEQYRMTIWDGLQDLK [R57D]  0.011 ± 0.26
13. YHADPSLVSFLTGLGCPNCIEYFTSQGLQSIYHLQNLTIEDLGALKIPEQYRMTIWGGLQDLK [R57G]  -0.01 ± 0.046
14. YHADPSLVSFLTGLGCPNCIEYFTSQGLQSIYHLQNLTIEDLGALKIPEQYRMTIWKGLQDLK [R57K]  -0.011 ± 0.048
15. YHADPSLVSFLTGLGCPNCIEYFTSQGLQSIYHLQNLTIEDLGALKIPEQYRMTIWQGLQDLK [R57Q]  -0.036 ± 0.042
16. YHADPSLVSFLTGLGCPNCIEYFTSQGLQSIYHLQNLTIEDLGALKIPEQYRMTVWRGLQDLK [I55V]  -0.041 ± 0.044
17. YHADPSLVSFLTGLGCPNCIEYFTSQGLQSIYHLQNLTIEDLGALKIPEQYRMTIERGLQDLK [W56E]  -0.047 ± 0.039
18. YHADPSLVSFLTGLGCPNCIEYFTSQGLQSIYHLQNLTIEDLGALKIPEQYRMTIVRGLQDLK [W56V]  -0.048 ± 0.043
19. YHADPSLVSFLTGLGCPNCIEYFTSQGLQSIYHLQNLTIEDLGALKIPEQYRMTIMRGLQDLK [W56M]  -0.049 ± 0.05
20. YHADPSLVSFLTGLGCPNCIEYFTSQGLQSIYHLQNLTIEDLGALKIPEQYRMTIWEGLQDLK [R57E]  -0.058 ± 0.057
21. YHADPSLVSFLTGLGCPNCIEYFTSQGLQSIYHLQNLTIEDLGALKIPEQYRMTIWAGLQDLK [R57A]  -0.068 ± 0.041
22. YHADPSLVSFLTGLGCPNCIEYFTSQGLQSIYHLQNLTIEDLGALKIPEQYRMTIWLGLQDLK [R57L]  -0.069 ± 0.038
23. YHADPSLVSFLTGLGCPNCIEYFTSQGLQSIYHLQNLTIEDLGALKIPEQYRMTLWRGLQDLK [I55L]  -0.091 ± 0.039
24. YHADPSLVSFLTGLGCPNCIEYFTSQGLQSIYHLQNLTIEDLGALKIPEQYRMTIKRGLQDLK [W56K]  -0.106 ± 0.044
25. YHADPSLVSFLTGLGCPNCIEYFTSQGLQSIYHLQNLTIEDLGALKIPEQYRMTIWSGLQDLK [R57S]  -0.114 ± 0.043
26. YHADPSLVSFLTGLGCPNCIEYFTSQGLQSIYHLQNLTIEDLGALKIPEQYRMTICRGLQDLK [W56C]  -0.124 ± 0.11
27. YHADPSLVSFLTGLGCPNCIEYFTSQGLQSIYHLQNLTIEDLGALKIPEQYRMTIGRGLQDLK [W56G]  -0.128 ± 0.035
28. YHADPSLVSFLTGLGCPNCIEYFTSQGLQSIYHLQNLTIEDLGALKIPEQYRMTIWNGLQDLK [R57N]  -0.134 ± 0.11
29. YHADPSLVSFLTGLGCPNCIEYFTSQGLQSIYHLQNLTIEDLGALKIPEQYRMTINRGLQDLK [W56N]  -0.137 ± 0.08
30. YHADPSLVSFLTGLGCPNCIEYFTSQGLQSIYHLQNLTIEDLGALKIPEQYRMTIRRGLQDLK [W56R]  -0.163 ± 0.029
31. YHADPSLVSFLTGLGCPNCIEYFTSQGLQSIYHLQNLTIEDLGALKIPEQYRMTIWCGLQDLK [R57C]  -0.192 ± 0.12
32. YHADPSLVSFLTGLGCPNCIEYFTSQGLQSIYHLQNLTIEDLGALKIPEQYRMTIWIGLQDLK [R57I]  -0.24 ± 0.2
33. YHADPSLVSFLTGLGCPNCIEYFTSQGLQSIYHLQNLTIEDLGALKIPEQYRMTMWRGLQDLK [I55M]  -0.241 ± 0.057
34. YHADPSLVSFLTGLGCPNCIEYFTSQGLQSIYHLQNLTIEDLGALKIPEQYRMTIDRGLQDLK [W56D]  -0.241 ± 0.056
35. YHADPSLVSFLTGLGCPNCIEYFTSQGLQSIYHLQNLTIEDLGALKIPEQYRMTQWRGLQDLK [I55Q]  -0.5 ± 0.098
36. YHADPSLVSFLTGLGCPNCIEYFTSQGLQSIYHLQNLTIEDLGALKIPEQYRMTNWRGLQDLK [I55N]  -0.559 ± 0.35
37. YHADPSLVSFLTGLGCPNCIEYFTSQGLQSIYHLQNLTIEDLGALKIPEQYRMTTWRGLQDLK [I55T]  -0.598 ± 0.077
38. YHADPSLVSFLTGLGCPNCIEYFTSQGLQSIYHLQNLTIEDLGALKIPEQYRMTIWPGLQDLK [R57P]  -0.625 ± 0.11
39. YHADPSLVSFLTGLGCPNCIEYFTSQGLQSIYHLQNLTIEDLGALKIPEQYRMTRWRGLQDLK [I55R]  -0.807 ± 0.056
40. YHADPSLVSFLTGLGCPNCIEYFTSQGLQSIYHLQNLTIEDLGALKIPEQYRMTSWRGLQDLK [I55S]  -0.881 ± 0.1
41. YHADPSLVSFLTGLGCPNCIEYFTSQGLQSIYHLQNLTIEDLGALKIPEQYRMTIPRGLQDLK [W56P]  -0.893 ± 0.13
42. YHADPSLVSFLTGLGCPNCIEYFTSQGLQSIYHLQNLTIEDLGALKIPEQYRMTWWRGLQDLK [I55W]  -0.923 ± 0.084
43. YHADPSLVSFLTGLGCPNCIEYFTSQGLQSIYHLQNLTIEDLGALKIPEQYRMTPWRGLQDLK [I55P]  -1.08 ± 0.16
